Test results: article PMC6396024, “Artemin and an Artemin-Derived Peptide, Artefin, Induce Neuronal Survival, and Differentiation Through Ret and NCAM” (Frontiers in Molecular Neuroscience, 2019)
Bridge positions count the residues as written; N and C are the ends. Ends that are not written are not given here. I, II: the chains in the order shown.

T1: recombinant human GFRα3/Fc (human, UniProt O60609 32-374)
T1 construct: GDNF family receptor alpha-3 (GFRα3), human; Commercial Fc chimera; also called GFL receptor α3; source: bought: R&D Systems
T1 sequence (looked up): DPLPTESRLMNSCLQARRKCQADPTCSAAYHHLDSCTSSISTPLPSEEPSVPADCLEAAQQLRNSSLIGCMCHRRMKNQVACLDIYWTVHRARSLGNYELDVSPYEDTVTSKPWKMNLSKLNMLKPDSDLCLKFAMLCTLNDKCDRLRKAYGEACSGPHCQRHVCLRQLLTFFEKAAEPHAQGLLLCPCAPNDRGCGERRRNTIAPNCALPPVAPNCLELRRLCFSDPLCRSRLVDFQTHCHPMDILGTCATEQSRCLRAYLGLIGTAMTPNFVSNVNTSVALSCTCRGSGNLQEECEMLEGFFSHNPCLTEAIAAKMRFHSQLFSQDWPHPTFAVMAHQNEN


Key:
GFRα1 = assay: SPR binding to immobilized GFRα1/Fc; settings: artefin 15.6 μM
[1] = molecular target: T1, recombinant human GFRα3/Fc; assay: SPR; Biacore 2000, 25°C, HBS-EP (10 mM HEPES pH 7.4, 150 mM NaCl, 3 mM EDTA, 0.005% P20); ARTN (~2300 RU) or artefin (~1600 RU) amine-coupled on a CM4 chip; serially diluted GFRα3/Fc or NCAM Ig1–3 injected at 20 μl/min; 1:1 interaction model or steady-state affinity analysis; settings: both partners purified
[2] = molecular target: T2, recombinant rat NCAM Ig1–3 (rat, UniProt P13596 20-308); assay: as above; settings: both partners purified
T2 construct: neural cell adhesion molecule (NCAM), rat, Ig1–3 domains; also called NCAM Ig1–3 domain; source: recombinant, produced as described previously (Soroka et al., 2003)
T2 sequence (P13596 20-308): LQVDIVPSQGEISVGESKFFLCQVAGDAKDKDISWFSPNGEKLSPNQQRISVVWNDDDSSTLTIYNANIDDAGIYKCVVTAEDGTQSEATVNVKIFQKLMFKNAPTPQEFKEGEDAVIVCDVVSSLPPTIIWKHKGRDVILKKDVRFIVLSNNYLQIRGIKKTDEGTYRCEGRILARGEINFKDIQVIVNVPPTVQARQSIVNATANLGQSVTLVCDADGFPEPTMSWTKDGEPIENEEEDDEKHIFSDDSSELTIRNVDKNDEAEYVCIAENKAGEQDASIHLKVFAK

[3] = system: patients with lumbosacral radiculopathy; settings: intravenous, Phase 2; particularly at the lowest dose; ref Backonja et al., 2017; cited from earlier work
Source text: (§1) Results from Phase 1 clinical trials ([Rolan et al., 2015]; [Okkerse et al., 2016]) further support the application of ARTN for treatment of peripheral nerve injury and attenuation of neuropathic pain. A recent Phase 2 trial (SPRINT) that evaluated the sa ...

[4] = system: surgically and chemically induced nerve injury models; settings: systemic treatment; ref Gardell et al., 2003; Bennett et al., 2006; Wang et al., 2008; Wong et al., 2015; cited from earlier work
Source text: as §1

binding to GFRα1 (GFRα1)	Kd [1]	Kd [2]	Molecule	reducing pain in patients with lumbosacral radiculopathy [3]	effect on behavioral symptoms of neuropathic pain [4]
binds to GFRα1	–	–	I: RSPHDLSLASLLGAGKK-NH2 / II: RSPHDLSLASLLGAGK / III: RSPHDLSLASLLGAG / IV: RSPHDLSLASLLGAG (amide I:16-IV:C, I:17-II:C, II:16-III:C; C-terminus assumed) [artefin]	–	–
–	0.0027 µM	13 µM	recombinant human Artemin (ARTN) (ligand, UniProt Q5T4W7 108-220, looked up, Artemin (ARTN), human, UniProt D3DPX9; source: bought: R&D Systems) AGGPGSRARAAGARGCRLRSQLVPVRALGLGHRSDELVRFRFCSGSCRRARSPHDLSLASLLGAGALRPPPGSRPVSQPCCRPTRYEAVSFMDVNSTWRTVDRLSATACGCLG	showed evidence of pain relief	mitigates behavioral symptoms associated with neuropathic pain
